From US20250312499A1, “KISSPEPTIN RECEPTOR (KISS1R) TARGETED THERAPEUTICS AND USES THEREOF” (priority 2024, published 2025)
Numbered stars: 1 amine (or outer) side, 2 acyl side, 3 side chain; on linkers, the order of the positions; unused ones are H or OH. Square brackets hold non-standard residues; d marks the D form. * marks the point of attachment. X2 = 4‑amino‑1‑((3-fluoro-4-methylbenzyl)glycyl)piperidine‑4‑carboxylic acid, Cc1ccc(CN(CC(=O)N2CCC(N[*:1])(C(=O)[*:2])CC2)[*:3])cc1F; X10 = 3‑(2-(2-(3-(4-iodophenyl)propanamido)ethoxy)ethoxy)propanoyl, O=C(CCc1ccc(I)cc1)NCCOCCOCCC(=O)*; X6 = 3‑(2-(2-(3-(p-tolyl)propanamido)ethoxy)ethoxy)propanoyl, Cc1ccc(CCC(=O)NCCOCCOCCC(=O)*)cc1; DOTA = O=C(O)CN1CCN(CC(=O)O)CCN(CC(=O)*)CCN(CC(=O)O)CC1; Butanoyl(4-(4-I-phenyl)) = O=C(CCCc1ccc(I)cc1)*; Api(1-amidino) = N=C(N)N1CCC(N)(C(=O)O)CC1; d(γGlu) = O=C(O)[C@@H](CCC(=O)[*:2])N[*:1]; Phe(4-CN) = N#Cc1ccc(C[C@H](N)C(=O)O)cc1; d2Nal = N[C@H](Cc1ccc2ccccc2c1)C(=O)O; Palmitoyl = CCCCCCCCCCCCCCCC(=O)*; Cha = N[C@@H](CC1CCCCC1)C(=O)O; Lauroyl = CCCCCCCCCCCC(=O)*; Octanoyl = CCCCCCCC(=O)*; Ahx = NCCCCCC(=O)O; azaGly = NNC(=O)O

B1: Compound 334 (peptide)
peptide: X10-[dY][dK](DOTA)NTF[azaGly]L[Api(1-amidino)]W-NH2
SMILES: CC(C)C[C@H](NC(=O)NNC(=O)[C@H](Cc1ccccc1)NC(=O)[C@@H](NC(=O)[C@H](CC(N)=O)NC(=O)[C@@H](CCCCNC(=O)CN1CCN(CC(=O)O)CCN(CC(=O)O)CCN(CC(=O)O)CC1)NC(=O)[C@@H](Cc1ccc(O)cc1)NC(=O)CCOCCOCCNC(=O)CCc1ccc(I)cc1)[C@@H](C)O)C(=O)NC1(C(=O)N[C@@H](Cc2c[nH]c3ccccc23)C(N)=O)CCN(C(=N)N)CC1
B2: Compound 331 (peptide)
peptide: Lauroyl-[dY]K(DOTA)NTF[azaGly]L[Api(1-amidino)]Y-NH2
SMILES: CCCCCCCCCCCC(=O)N[C@H](Cc1ccc(O)cc1)C(=O)N[C@@H](CCCCNC(=O)CN1CCN(CC(=O)O)CCN(CC(=O)O)CCN(CC(=O)O)CC1)C(=O)N[C@@H](CC(N)=O)C(=O)N[C@H](C(=O)N[C@@H](Cc1ccccc1)C(=O)NNC(=O)N[C@@H](CC(C)C)C(=O)NC1(C(=O)N[C@@H](Cc2ccc(O)cc2)C(N)=O)CCN(C(=N)N)CC1)[C@@H](C)O
B3: Compound 323 (peptide)
peptide: X10-[dY]K(DOTA)NTF[azaGly]L[Api(1-amidino)]F-NH2
SMILES: CC(C)C[C@H](NC(=O)NNC(=O)[C@H](Cc1ccccc1)NC(=O)[C@@H](NC(=O)[C@H](CC(N)=O)NC(=O)[C@H](CCCCNC(=O)CN1CCN(CC(=O)O)CCN(CC(=O)O)CCN(CC(=O)O)CC1)NC(=O)[C@@H](Cc1ccc(O)cc1)NC(=O)CCOCCOCCNC(=O)CCc1ccc(I)cc1)[C@@H](C)O)C(=O)NC1(C(=O)N[C@@H](Cc2ccccc2)C(N)=O)CCN(C(=N)N)CC1
B4: Compound 302 (peptide)
peptide: {DOTA}-[d2Nal]NTF[azaGly]L[Api(1-amidino)]F-NH2
SMILES: CC(C)C[C@H](NC(=O)NNC(=O)[C@H](Cc1ccccc1)NC(=O)[C@@H](NC(=O)[C@H](CC(N)=O)NC(=O)[C@@H](Cc1ccc2ccccc2c1)NC(=O)CN1CCN(CC(=O)O)CCN(CC(=O)O)CCN(CC(=O)O)CC1)[C@@H](C)O)C(=O)NC1(C(=O)N[C@@H](Cc2ccccc2)C(N)=O)CCN(C(=N)N)CC1
B5: Compound 324 (peptide)
peptide: X10-[dY]K(DOTA)NTF[azaGly]L[Api(1-amidino)]Y-NH2
SMILES: CC(C)C[C@H](NC(=O)NNC(=O)[C@H](Cc1ccccc1)NC(=O)[C@@H](NC(=O)[C@H](CC(N)=O)NC(=O)[C@H](CCCCNC(=O)CN1CCN(CC(=O)O)CCN(CC(=O)O)CCN(CC(=O)O)CC1)NC(=O)[C@@H](Cc1ccc(O)cc1)NC(=O)CCOCCOCCNC(=O)CCc1ccc(I)cc1)[C@@H](C)O)C(=O)NC1(C(=O)N[C@@H](Cc2ccc(O)cc2)C(N)=O)CCN(C(=N)N)CC1
B6: Compound 327 (peptide)
peptide: X10-[dY]K(DOTA)NT[Cha][azaGly]L[Api(1-amidino)]W-NH2
SMILES: CC(C)C[C@H](NC(=O)NNC(=O)[C@H](CC1CCCCC1)NC(=O)[C@@H](NC(=O)[C@H](CC(N)=O)NC(=O)[C@H](CCCCNC(=O)CN1CCN(CC(=O)O)CCN(CC(=O)O)CCN(CC(=O)O)CC1)NC(=O)[C@@H](Cc1ccc(O)cc1)NC(=O)CCOCCOCCNC(=O)CCc1ccc(I)cc1)[C@@H](C)O)C(=O)NC1(C(=O)N[C@@H](Cc2c[nH]c3ccccc23)C(N)=O)CCN(C(=N)N)CC1
B7: Compound 336 (peptide)
peptide: {DOTA-Ahx}-[dK](Butanoyl(4-(4-I-phenyl)))[dY][d2Nal]NTF[azaGly]L[Api(1-amidino)]W-NH2
SMILES: CC(C)C[C@H](NC(=O)NNC(=O)[C@H](Cc1ccccc1)NC(=O)[C@@H](NC(=O)[C@H](CC(N)=O)NC(=O)[C@@H](Cc1ccc2ccccc2c1)NC(=O)[C@@H](Cc1ccc(O)cc1)NC(=O)[C@@H](CCCCNC(=O)CCCc1ccc(I)cc1)NC(=O)CCCCCNC(=O)CN1CCN(CC(=O)O)CCN(CC(=O)O)CCN(CC(=O)O)CC1)[C@@H](C)O)C(=O)NC1(C(=O)N[C@@H](Cc2c[nH]c3ccccc23)C(N)=O)CCN(C(=N)N)CC1
B8: Compound 328 (peptide)
peptide: Palmitoyl-[dY]K(DOTA)NTF[azaGly]L[Api(1-amidino)]W-NH2
SMILES: CCCCCCCCCCCCCCCC(=O)N[C@H](Cc1ccc(O)cc1)C(=O)N[C@@H](CCCCNC(=O)CN1CCN(CC(=O)O)CCN(CC(=O)O)CCN(CC(=O)O)CC1)C(=O)N[C@@H](CC(N)=O)C(=O)N[C@H](C(=O)N[C@@H](Cc1ccccc1)C(=O)NNC(=O)N[C@@H](CC(C)C)C(=O)NC1(C(=O)N[C@@H](Cc2c[nH]c3ccccc23)C(N)=O)CCN(C(=N)N)CC1)[C@@H](C)O
B9: Compound 326 (peptide)
peptide: X6-[dY]K(DOTA)NT[Cha][azaGly]L[Api(1-amidino)]W-NH2
SMILES: Cc1ccc(CCC(=O)NCCOCCOCCC(=O)N[C@H](Cc2ccc(O)cc2)C(=O)N[C@@H](CCCCNC(=O)CN2CCN(CC(=O)O)CCN(CC(=O)O)CCN(CC(=O)O)CC2)C(=O)N[C@@H](CC(N)=O)C(=O)N[C@H](C(=O)N[C@@H](CC2CCCCC2)C(=O)NNC(=O)N[C@@H](CC(C)C)C(=O)NC2(C(=O)N[C@@H](Cc3c[nH]c4ccccc34)C(N)=O)CCN(C(=N)N)CC2)[C@@H](C)O)cc1
B10: Compound 329 (peptide)
peptide: Lauroyl-[dY]K(DOTA)NTF[azaGly]L[Api(1-amidino)]W-NH2
SMILES: CCCCCCCCCCCC(=O)N[C@H](Cc1ccc(O)cc1)C(=O)N[C@@H](CCCCNC(=O)CN1CCN(CC(=O)O)CCN(CC(=O)O)CCN(CC(=O)O)CC1)C(=O)N[C@@H](CC(N)=O)C(=O)N[C@H](C(=O)N[C@@H](Cc1ccccc1)C(=O)NNC(=O)N[C@@H](CC(C)C)C(=O)NC1(C(=O)N[C@@H](Cc2c[nH]c3ccccc23)C(N)=O)CCN(C(=N)N)CC1)[C@@H](C)O
B11: Compound 330 (peptide)
peptide: Palmitoyl-[dY]K(DOTA)NTF[azaGly]L[Api(1-amidino)]Y-NH2
SMILES: CCCCCCCCCCCCCCCC(=O)N[C@H](Cc1ccc(O)cc1)C(=O)N[C@@H](CCCCNC(=O)CN1CCN(CC(=O)O)CCN(CC(=O)O)CCN(CC(=O)O)CC1)C(=O)N[C@@H](CC(N)=O)C(=O)N[C@H](C(=O)N[C@@H](Cc1ccccc1)C(=O)NNC(=O)N[C@@H](CC(C)C)C(=O)NC1(C(=O)N[C@@H](Cc2ccc(O)cc2)C(N)=O)CCN(C(=N)N)CC1)[C@@H](C)O
B12: Compound 305 (peptide)
peptide: {DOTA}-GY[Ahx]F[azaGly]L[X2]W-NH2
SMILES: Cc1ccc(CNCC(=O)N2CCC(NC(=O)[C@H](CC(C)C)NC(=O)NNC(=O)[C@H](Cc3ccccc3)NC(=O)CCCCCNC(=O)[C@H](Cc3ccc(O)cc3)NC(=O)CNC(=O)CN3CCN(CC(=O)O)CCN(CC(=O)O)CCN(CC(=O)O)CC3)(C(=O)N[C@@H](Cc3c[nH]c4ccccc34)C(N)=O)CC2)cc1F
B13: Compound 333 (peptide)
peptide: X6-[dY]K(DOTA)NTF[azaGly]L[Api(1-amidino)][Phe(4-CN)]-NH2
SMILES: Cc1ccc(CCC(=O)NCCOCCOCCC(=O)N[C@H](Cc2ccc(O)cc2)C(=O)N[C@@H](CCCCNC(=O)CN2CCN(CC(=O)O)CCN(CC(=O)O)CCN(CC(=O)O)CC2)C(=O)N[C@@H](CC(N)=O)C(=O)N[C@H](C(=O)N[C@@H](Cc2ccccc2)C(=O)NNC(=O)N[C@@H](CC(C)C)C(=O)NC2(C(=O)N[C@@H](Cc3ccc(C#N)cc3)C(N)=O)CCN(C(=N)N)CC2)[C@@H](C)O)cc1
B14: Compound 325 (peptide)
peptide: X10-[dY]K(DOTA)NTF[azaGly]L[Api(1-amidino)][Phe(4-CN)]-NH2
SMILES: CC(C)C[C@H](NC(=O)NNC(=O)[C@H](Cc1ccccc1)NC(=O)[C@@H](NC(=O)[C@H](CC(N)=O)NC(=O)[C@H](CCCCNC(=O)CN1CCN(CC(=O)O)CCN(CC(=O)O)CCN(CC(=O)O)CC1)NC(=O)[C@@H](Cc1ccc(O)cc1)NC(=O)CCOCCOCCNC(=O)CCc1ccc(I)cc1)[C@@H](C)O)C(=O)NC1(C(=O)N[C@@H](Cc2ccc(C#N)cc2)C(N)=O)CCN(C(=N)N)CC1
B15: Compound 332 (peptide)
peptide: Octanoyl-[dY]K(DOTA)NTF[azaGly]L[Api(1-amidino)]Y-NH2
SMILES: CCCCCCCC(=O)N[C@H](Cc1ccc(O)cc1)C(=O)N[C@@H](CCCCNC(=O)CN1CCN(CC(=O)O)CCN(CC(=O)O)CCN(CC(=O)O)CC1)C(=O)N[C@@H](CC(N)=O)C(=O)N[C@H](C(=O)N[C@@H](Cc1ccccc1)C(=O)NNC(=O)N[C@@H](CC(C)C)C(=O)NC1(C(=O)N[C@@H](Cc2ccc(O)cc2)C(N)=O)CCN(C(=N)N)CC1)[C@@H](C)O
B16: Compound 322 (peptide)
peptide: X6-[dY]K(DOTA)NTF[azaGly]L[Api(1-amidino)]F-NH2
SMILES: Cc1ccc(CCC(=O)NCCOCCOCCC(=O)N[C@H](Cc2ccc(O)cc2)C(=O)N[C@@H](CCCCNC(=O)CN2CCN(CC(=O)O)CCN(CC(=O)O)CCN(CC(=O)O)CC2)C(=O)N[C@@H](CC(N)=O)C(=O)N[C@H](C(=O)N[C@@H](Cc2ccccc2)C(=O)NNC(=O)N[C@@H](CC(C)C)C(=O)NC2(C(=O)N[C@@H](Cc3ccccc3)C(N)=O)CCN(C(=N)N)CC2)[C@@H](C)O)cc1

Molecular target: human kisspeptin receptor (KISS1R) (human), Q969F8
Test: radioligand competition, hKISS1R membranes; legend: A is <10 nM

Sequence of human kisspeptin receptor (KISS1R) (human), Q969F8 (Q969F8 whole entry): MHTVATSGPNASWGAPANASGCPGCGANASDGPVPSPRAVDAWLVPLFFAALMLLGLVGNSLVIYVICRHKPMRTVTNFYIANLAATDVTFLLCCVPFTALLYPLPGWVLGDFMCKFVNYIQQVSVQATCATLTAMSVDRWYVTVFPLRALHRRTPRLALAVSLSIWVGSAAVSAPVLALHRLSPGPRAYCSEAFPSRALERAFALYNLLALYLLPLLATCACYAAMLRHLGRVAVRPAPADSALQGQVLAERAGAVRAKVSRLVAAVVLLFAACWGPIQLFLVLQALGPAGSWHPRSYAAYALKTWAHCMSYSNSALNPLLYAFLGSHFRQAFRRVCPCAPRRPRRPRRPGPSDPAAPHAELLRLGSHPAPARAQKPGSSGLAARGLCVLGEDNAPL

How did the Ki turn out when {3‑(4-iodophenyl)propanoyl}-[dY]K(DOTA)NTF[azaGly]L[Api(1-amidino)]W-NH2 [Compound 321] was run?
The Ki was less than 10 nM.

Which Ki does the source give for B1 here?
The Ki was less than 10 nM.

Which Ki does the source give for B2 here?
Its Ki is less than 10 nM.

Which Ki does the source give for B3 here?
The Ki was less than 10 nM.

B4 was tested. Which Ki did it give?
The Ki was less than 10 nM.

With {3‑(4-iodophenyl)propanoyl}-[d(γGlu)][dY]K(DOTA)NTF[azaGly]L[Api(1-amidino)]W-NH2 [Compound 320] as the binder, how does the Ki read?
The Ki was less than 10 nM.

For B5, which Ki is on record?
Its Ki is less than 10 nM.

With B6 as the binder, how does the Ki read?
The Ki was less than 10 nM.

With B7 as the binder, how does the Ki read?
Its Ki is less than 10 nM.

For B8, which Ki is on record?
The Ki was less than 10 nM.

B9 was tested. Which Ki did it give?
The Ki was less than 10 nM.

How did the Ki turn out when B10 was run?
Its Ki is less than 10 nM.

B11 was tested. Which Ki did it give?
The Ki was less than 10 nM.

How did the Ki turn out when B12 was run?
Its Ki is less than 10 nM.

Which Ki does the source give for {DOTA-Ahx}-[dK](4‑(p-tolyl)butanoyl)[dY][d2Nal]NTF[azaGly]L[Api(1-amidino)]W-NH2 [Compound 335] here?
The Ki was less than 10 nM.

B13 was tested. Which Ki did it give?
The Ki was less than 10 nM.

How did the Ki turn out when B14 was run?
The Ki was less than 10 nM.

How did the Ki turn out when B15 was run?
The Ki was less than 10 nM.

Which Ki does the source give for B16 here?
Its Ki is less than 10 nM.
